Experimental findings from publication PMC10385607, “Optimization and Characterization of Novel ALCAM-Targeting Antibody Fragments for Transepithelial Delivery” (Pharmaceutics, 2023) are described below.

Series [1] addresses T1, Human ALCAM (28–501)-6xhistidine tag (human, UniProt Q13740).
T1 construct: human ALCAM, residues 28-501, all five extracellular immunoglobulin domains; also called hALCAM; source: CHO cells, in-house, purified (Ni-NTA agarose)
Description: ELISA; CD6 competition ELISA: plate coated with hALCAM (5 µg/mL in PBS); fixed murine CD6-Fc (0.25 µg/mL) with antibody 2000 nM to 0.002 nM in PBS, 2 h RT; bound CD6-Fc detected with HRP-coupled antihuman IgG. The note with it: both partners purified. A general note: In an ELISA, binding on a coated surface is turned into a signal by an enzyme label.

Series [2] addresses T1, Human ALCAM (28–501)-6xhistidine tag. Description: SPR; BiaCore3000; CM5 chip coated with hALCAM at 800 RU; flow 10 µL/min; single-cycle, sequential injection of scFv at 30, 60, 120 and 240 nM. Particulars: both partners purified. A general note: In SPR one partner is held on a chip, and binding of the other changes the refractive index at the surface.
For series [3], the target named is T2, Human ALCAM (28–501)-6xhistidine tag (human, UniProt Q13740 28-501).
T2 construct: human ALCAM, residues 28-501, all five extracellular immunoglobulin domains; also called hALCAM; source: CHO cells, in-house, purified (Ni-NTA agarose)
T2 sequence (looked up): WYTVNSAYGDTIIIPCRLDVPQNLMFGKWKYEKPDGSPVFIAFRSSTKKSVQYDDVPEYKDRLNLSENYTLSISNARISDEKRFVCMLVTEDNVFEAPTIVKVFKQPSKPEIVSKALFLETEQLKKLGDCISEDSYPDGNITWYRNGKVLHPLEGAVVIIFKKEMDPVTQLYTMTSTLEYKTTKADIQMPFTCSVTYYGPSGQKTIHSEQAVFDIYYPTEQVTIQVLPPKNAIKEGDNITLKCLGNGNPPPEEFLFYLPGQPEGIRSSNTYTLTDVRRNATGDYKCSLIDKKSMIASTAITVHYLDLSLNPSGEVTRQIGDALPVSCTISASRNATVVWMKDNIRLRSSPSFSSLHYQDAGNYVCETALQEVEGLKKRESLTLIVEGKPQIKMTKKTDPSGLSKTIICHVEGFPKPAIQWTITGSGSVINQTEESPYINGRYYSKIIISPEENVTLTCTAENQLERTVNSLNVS
Description: ELISA; CD6 competition ELISA: plate coated with hALCAM (5 µg/mL in PBS); fixed murine CD6-Fc (0.25 µg/mL) with antibody 2000 nM to 0.002 nM in PBS, 2 h RT; bound CD6-Fc detected with HRP-coupled antihuman IgG. The note with it: both partners purified.

In series [4] the target is T1, Human ALCAM (28–501)-6xhistidine tag. Described as above. The note with it: both partners purified. This is another data set of the same source.
The target of series [5] is T3, Rat ALCAM (Rattus norvegicus, UniProt O35112).
T3 construct: rat ALCAM, recombinant; source: bought: Sino Biological (80221-R08H-50)
The series can be described thus: ELISA; plate coated with human, mouse, rat or monkey ALCAM (5 µg/mL in PBS); scFv V2D7 1:3 dilutions from 1000 nM to 0.051 nM in PBS, 2 h RT; detected with HRP-coupled protein A. The note with it: both partners purified.

Series [6] has as its target T4, Monkey ALCAM (Macaca fascicularis (cynomolgus monkey), UniProt G7NZQ8).
T4 construct: cynomolgus monkey ALCAM, recombinant; also called cynomolgus monkey ALCAM; source: bought: R&D systems (10027-AL-100)
The description is as above. The note with it: both partners purified.

Series [7] concerns the target Murine ALCAM (Mus musculus, UniProt Q61490). The series can be described thus: cell-based or functional assay.

Murine ALCAM, sequence (Q61490 28-527): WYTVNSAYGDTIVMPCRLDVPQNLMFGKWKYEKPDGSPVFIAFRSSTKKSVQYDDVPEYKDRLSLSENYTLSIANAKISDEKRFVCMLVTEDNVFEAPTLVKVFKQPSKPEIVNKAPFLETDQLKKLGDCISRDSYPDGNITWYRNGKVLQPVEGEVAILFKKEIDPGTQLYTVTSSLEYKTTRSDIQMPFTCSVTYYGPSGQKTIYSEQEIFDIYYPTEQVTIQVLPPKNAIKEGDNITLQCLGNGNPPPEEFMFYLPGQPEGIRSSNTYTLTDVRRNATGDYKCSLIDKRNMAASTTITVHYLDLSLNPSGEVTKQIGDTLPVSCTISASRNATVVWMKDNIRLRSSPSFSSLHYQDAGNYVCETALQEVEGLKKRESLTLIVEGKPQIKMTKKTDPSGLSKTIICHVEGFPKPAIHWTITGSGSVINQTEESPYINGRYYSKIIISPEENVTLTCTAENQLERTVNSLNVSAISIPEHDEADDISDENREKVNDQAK
T3 sequence (O35112 28-527): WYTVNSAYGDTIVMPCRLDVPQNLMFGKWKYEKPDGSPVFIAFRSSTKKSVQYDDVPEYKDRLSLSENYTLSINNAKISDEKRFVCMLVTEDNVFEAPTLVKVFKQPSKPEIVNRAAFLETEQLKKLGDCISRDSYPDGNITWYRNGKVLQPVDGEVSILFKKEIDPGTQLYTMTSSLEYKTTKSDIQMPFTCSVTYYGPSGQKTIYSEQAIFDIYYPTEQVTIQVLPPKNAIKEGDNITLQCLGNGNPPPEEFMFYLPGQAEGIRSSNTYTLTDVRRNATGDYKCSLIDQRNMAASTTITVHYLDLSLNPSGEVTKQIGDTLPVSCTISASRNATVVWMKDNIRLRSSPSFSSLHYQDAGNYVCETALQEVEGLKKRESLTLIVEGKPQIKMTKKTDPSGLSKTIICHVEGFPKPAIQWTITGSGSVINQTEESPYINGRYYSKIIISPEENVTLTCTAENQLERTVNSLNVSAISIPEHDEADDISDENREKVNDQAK

B1: scFv IF8 (scFv, V domains shown)
VH: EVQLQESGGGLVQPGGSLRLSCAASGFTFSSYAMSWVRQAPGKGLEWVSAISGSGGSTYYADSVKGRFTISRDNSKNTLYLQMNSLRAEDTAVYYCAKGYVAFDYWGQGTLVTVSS
VL: SSELTQDPAVSVALGQTVRITCQGDSLRSYYASWYQQKPGQAPVLVIYGKNNRPSGIPDRFSGSSSGNTASLTITGAQAEDEADYYCNSSPPFSAEVVFGGGTKLTVL
notes: VH of IF8 (heavy chain DP47, ETH-2 library); VL of IF8 (light chain DPL16, ETH-2 library); CDR1 QGDSLRSYYAS, CDR2 GKNNRPS, CDR3 NSSPPFSAEVV; Only CDRs and linker are printed; also called IF8 scFv; parental scFv IF8; source: CHO cells, transient gene expression, purified (Protein A)
By IC50 is commonly meant the point on the concentration scale where inhibition reaches its midpoint. By Kd is commonly meant a measure of binding affinity in units of concentration. In turn, B1 came in with an IC50 in series [1] of 63.6 nM. Besides, binding in series [2] was put at a Kd of 24.1 nM.

B2: Murine CD6-Fc (Fc fusion, mouse, UniProt Q61003 17-398, looked up)
chain: GLPSPAPSGQHKNGTIPNMTLDLEERLGIRLVNGSSRCSGSVKVLLESWEPVCAAHWNRAATEAVCKALNCGDSGKVTYLMPPTSELPPGATSGNTSSAGNTTWARAPTERCRGANWQFCKVQDQECSSDRRLVWVTCAENQAVRLVDGSSRCAGRVEMLEHGEWGTVCDDTWDLQDAHVVCKQLKCGWAVKALAGLHFTPGQGPIHRDQVNCSGTEAYLWDCPGRPGDQYCGHKEDAGVVCSEHQSWRLTGGIDSCEGQVEVYFRGVWSTVCDSEWYPSEAKVLCRSLGCGSAVARPRGLPHSLDGRMYYSCKGQEPALSTCSWRFNNSNLCSQSRAARVVCSGSQRHLNLSTSEVPSRVPVTIESSVPVSVKDKDSQGLT
notes: mouse CD6, recombinant Fc fusion; source: bought: R&D Systems (727-CD)
Regarding B2, the binding result in series [3] was “binds”.

B3: scFv V2D7 (scFv, V domains shown)
VH: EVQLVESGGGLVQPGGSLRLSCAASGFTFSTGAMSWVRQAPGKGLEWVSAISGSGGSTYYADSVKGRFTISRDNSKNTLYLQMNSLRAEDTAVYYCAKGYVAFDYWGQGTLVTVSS
VL: SSVLTQPPSVSVAPGQTARITCQGDSLRSGYASWYQQKPGQAPVLVVYGKNNRPSGIPERFSGSSSGNTATLTISRVEAGDEADYYCNSSPPFSAEVVFGGGTKLTVL
notes: VH of V2D7: as the VH of OPT with changed CDR1; linker; VL of V2D7: as the VL of OPT with changed CDR1; CDR1 QGDSLRSGYAS, CDR2 GKNNRPS, CDR3 NSSPPFSAEVV; also called V2D7 scFv; source: CHO cells, transient gene expression, purified (Protein A)
Take B3: the IC50 in series [4] turned out to be 20.7 ± 11.8 nM. In addition, the binding result in series [5] and in series [6] was “binds” each time. For the same molecule, in series [7], the “IC50 of DC transmigration across LEC monolayers (DC TM; blocks ALCAM–ALCAM between DCs and LECs)” value was more than 100 nM.

B4: scFv V200G1 (scFv, V domains shown)
VH: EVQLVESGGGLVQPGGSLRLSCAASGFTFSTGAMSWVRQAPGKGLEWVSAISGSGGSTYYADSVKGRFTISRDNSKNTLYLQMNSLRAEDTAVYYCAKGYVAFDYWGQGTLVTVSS
VL: SSVLTQPPSVSVAPGQTARITCQGDSLRSGYASWYQQKPGQAPVLVVYGKTGRPSGIPERFSGSSSGNTATLTISRVEAGDEADYYCNSSPPFSAEVVFGGGTKLTVL
notes: VH of V200G1: as the VH of V2D7, i.e. the VH of OPT with changed CDR1; linker; VL of V200G1: as the VL of OPT with changed CDR1 and CDR2; CDR1 QGDSLRSGYAS, CDR2 GKTGRPS, CDR3 NSSPPFSAEVV; source: CHO cells, transient gene expression, purified (Protein A)
In the case of B4, the binding result in series [2] is recorded as “binds”.

B5: scFv OPT (scFv, V domains shown)
VH: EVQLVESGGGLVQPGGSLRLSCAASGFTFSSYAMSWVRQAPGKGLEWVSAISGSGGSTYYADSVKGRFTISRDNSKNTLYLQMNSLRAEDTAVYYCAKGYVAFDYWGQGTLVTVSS
VL: SSVLTQPPSVSVAPGQTARITCQGDSLRSYYASWYQQKPGQAPVLVVYGKNNRPSGIPERFSGSSSGNTATLTISRVEAGDEADYYCNSSPPFSAEVVFGGGTKLTVL
notes: linker; CDR1 QGDSLRSYYAS, CDR2 GKNNRPS, CDR3 NSSPPFSAEVV; Only CDRs and linker are printed; also called framework-optimized scFv OPT; source: CHO cells, transient gene expression, purified (Protein A)
As for B5, in series [2], the “fold improvement of Kd against scFv IF8” value was determined as 2 fold.

B6: scFv V20C10NC (scFv, V domains shown)
VH: EVQLVESGGGLVQPGGSLRLSCAASGFTFSTGAMSWVRQAPGKGLEWVSAISGTGGTTYYADSVKGRFTISRDNSKNTLYLQMNSLRAEDTAVYYCAKGYVAFDYWGQGTLVTVSS
VL: SSVLTQPPSVSVAPGQTARITCQGDSLRSGYASWYQQKPGQAPVLVVYPKMSRPSGIPERFSGSSSGNTATLTISRVEAGDEADYYCNSSPPFSAEVVFGGGTKLTVL
notes: VH of V20C10NC: as the VH of OPT with changed CDR1 and CDR2; linker; VL of V20C10NC: as the VL of OPT with changed CDR1 and CDR2; CDR1 QGDSLRSGYAS, CDR2 PKMSRPS, CDR3 NSSPPFSAEVV; Histidines in the CDR2 loops of clone V20C10 were mutated to threonine (VH) and serine (VL), giving V20C10NC; source: CHO cells, transient gene expression, purified (Protein A)
As to B6, in series [2], the binding result is on record as “binds”.

B7: db V20C10NC (other)
VH: EVQLVESGGGLVQPGGSLRLSCAASGFTFSTGAMSWVRQAPGKGLEWVSAISGTGGTTYYADSVKGRFTISRDNSKNTLYLQMNSLRAEDTAVYYCAKGYVAFDYWGQGTLVTVSS
VL: SSVLTQPPSVSVAPGQTARITCQGDSLRSGYASWYQQKPGQAPVLVVYPKMSRPSGIPERFSGSSSGNTATLTISRVEAGDEADYYCNSSPPFSAEVVFGGGTKLTVL
notes: linker; Bivalent two-chain diabody; also called V20C10NC in db format; source: CHO cells, transient gene expression, purified (Protein A)
As to B7, the binding result in series [1] is listed as “binds”.
